This note sets out measurements from patent US20070087000A1 (Pfizer, published 2007).

The target in test [1] is T1, Human GDF-8 (mature, recombinant dimer), biotinylated in the ELISAs (human, UniProt O14793 267-375, biotinylated in the direct and competition ELISAs (sites not given)).
T1 construct: It was not biotinylated in the reporter assay; also called myostatin; growth and differentiation factor-8
The test can be described thus: competition ELISA: soluble ActRIIB-Fc as competitor of biotinylated GDF-8 binding to immobilized ActRIIB-Fc. A general note: In an ELISA, binding on a coated surface is turned into a signal by an enzyme label.

Test [2] addresses T1, Human GDF-8 (mature, recombinant …). The test can be described thus: competition ELISA: RK35 inhibits binding of biotinylated GDF-8 to immobilized ActRIIB-Fc; competition ELISA, biotinylated GDF-8 to immobilized ActRIIB-Fc.

B1: Recombinant ActRIIB-Fc chimera (human ActRIIB fused to the human IgG constant region, Fc) (Fc fusion, UniProt Q13705 19-137, looked up)
chain: SGRGEAETRECIYYNANWELERTNQSGLERCEGEQDKRLHCYASWRNSSGTIELVKKGCWLDDFNCYDRQECVATEENPQVYFCCCEGNFCNERFTHLPEAGGPEVTYEPPPTAPTLLT
notes: extracellular domain; The same protein was used immobilised and as the soluble positive control; also called soluble ActRIIB; soluble ActRIIB-Fc receptor; not shown: human IgG1 Fc region
For B1, the “IC50 (read off the curve)” value in test [1] is roughly 0.3 nM.

B2: RK35 anti-GDF-8 mouse monoclonal antibody (antibody, V domains shown)
VH: EVQLVESGGGLVKPGGSLKLSCAASGFTFSSYAMSWVRQTPEKRLEWVATISSGGSYTSYPDSVKGRFTISRDNAKNTLYLQMSSLRSEDTAMYYCARQDYAMNYWGQGTSVTVSS
VL: DIEMTQSHKFMSTSVGDRVSITCKASQDVSTAVAWYQQKPGQSPKLLLYSASYRYTGVPDRFTGSGSGTDFTFTISSVQAEDLAVYYCQQHYSTPWTFGGGTKLEIK
notes: Murine monoclonal antibody from a hybridoma (myostatin knockout BALB/c mice immunised with recombinant GDF-8 dimer); also called RK35 mAb; murine RK35
On to B2, for which the half-inhibitory concentration (IC50) in test [2] is roughly 2.5 nM.

As usually defined, the IC50 is the concentration at which inhibition is half-maximal.
